Data set [1] addresses hPolεCD (insect), catalytic domain of DNA polymerase ε p261, iron-poor (7.3% iron) (human, UniProt Q07864 28-1194). Briefly: BLI; 100 mM NaCl; active enzyme concentration; kon 162 mM-1 s-1, koff 34.2e-3 s-1; EMSA: 20 mM Tris-Hepes pH 7.8, 100 mM NaCl, 2% glycerol, 2 mM TCEP, 0.2 mg/mL BSA, 0.5 uM DNA, 5 min room temperature; BLI: 30 mM Tris-Hepes pH 7.8, 100 or 150. Particulars: protein: recombinant; tags: cleavable N-terminal His-Tev, digested during purification; label: 5'-biotin-TEG on template (strand 1); template 5' overhang 9 nt, 3' overhang 3 nt; primer annealed at 2-fold excess.

In data set [2] the target is hPolεCD (E. coli), catalytic domain of DNA polymerase ε p261, CysX [4Fe-4S] cluster (63% iron) (human, UniProt Q07864 28-1194). Briefly: BLI; 100 mM NaCl; active enzyme concentration; kon 252 mM-1 s-1, koff 41.9e-3 s-1; EMSA: 20 mM Tris-Hepes pH 7.8, 100 mM NaCl, 2% glycerol, 2 mM TCEP, 0.2 mg/mL BSA, 0.5 uM DNA, 5 min room temperature; BLI: 30 mM Tris-Hepes pH 7.8, 100 or 150. Conditions: protein: recombinant; tags: N-terminal His-Sumo, His-tag digested during purification; label: 5'-biotin-TEG on template (strand 1); template 5' overhang 9 nt, 3' overhang 3 nt; primer annealed at 2-fold excess. Background: Biolayer interferometry detects binding as a change in optical thickness at a sensor tip.
Chain of hPolεCD (E. coli), catalytic domain of DNA polymerase ε p261, CysX [4Fe-4S] cluster (63% iron) (Q07864 28-1194): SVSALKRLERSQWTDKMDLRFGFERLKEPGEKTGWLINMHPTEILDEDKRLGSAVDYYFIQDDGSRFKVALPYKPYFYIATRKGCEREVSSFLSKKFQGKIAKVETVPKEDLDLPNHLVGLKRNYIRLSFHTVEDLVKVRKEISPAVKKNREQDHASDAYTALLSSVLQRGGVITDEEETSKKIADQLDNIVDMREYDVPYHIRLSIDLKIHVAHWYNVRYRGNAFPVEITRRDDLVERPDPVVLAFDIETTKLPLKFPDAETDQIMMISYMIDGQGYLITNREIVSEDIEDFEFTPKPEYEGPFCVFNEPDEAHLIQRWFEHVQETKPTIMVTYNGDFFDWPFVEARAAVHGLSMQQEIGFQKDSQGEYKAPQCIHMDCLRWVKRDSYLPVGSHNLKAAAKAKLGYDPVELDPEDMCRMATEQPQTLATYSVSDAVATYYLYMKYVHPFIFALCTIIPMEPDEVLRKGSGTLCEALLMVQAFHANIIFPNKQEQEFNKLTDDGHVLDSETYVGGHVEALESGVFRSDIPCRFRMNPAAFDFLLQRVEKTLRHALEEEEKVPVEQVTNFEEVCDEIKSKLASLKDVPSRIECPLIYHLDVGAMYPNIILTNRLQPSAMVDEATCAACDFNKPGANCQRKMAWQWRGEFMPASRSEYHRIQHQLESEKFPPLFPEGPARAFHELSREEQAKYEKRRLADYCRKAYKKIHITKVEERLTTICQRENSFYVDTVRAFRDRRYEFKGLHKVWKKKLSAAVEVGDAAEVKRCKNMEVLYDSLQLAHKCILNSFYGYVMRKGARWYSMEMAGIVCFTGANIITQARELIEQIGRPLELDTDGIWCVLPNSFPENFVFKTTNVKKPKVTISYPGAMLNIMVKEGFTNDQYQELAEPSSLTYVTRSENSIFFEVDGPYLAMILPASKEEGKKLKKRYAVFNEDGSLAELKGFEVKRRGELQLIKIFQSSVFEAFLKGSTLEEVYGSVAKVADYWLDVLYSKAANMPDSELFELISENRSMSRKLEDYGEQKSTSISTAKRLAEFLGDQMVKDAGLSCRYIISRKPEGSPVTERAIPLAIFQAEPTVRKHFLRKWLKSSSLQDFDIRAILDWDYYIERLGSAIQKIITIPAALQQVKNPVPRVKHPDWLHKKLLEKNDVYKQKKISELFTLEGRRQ

Data set [3] deals with hPolεCDM (C654S/C663S), [4Fe-4S]-deficient (human, UniProt Q07864 28-1194, C654S;C663S). Nature of the data set: EMSA; no mobility effect at 4-fold molar excess over DNA; EMSA: 20 mM Tris-Hepes pH 7.8, 100 mM NaCl, 2% glycerol, 2 mM TCEP, 0.2 mg/mL BSA, 0.5 uM DNA, 5 min room temperature; BLI: 30 mM Tris-Hepes pH 7.8, 100 or 150. Particulars: protein: recombinant; tags: N-terminal His-Sumo, His-tag digested during purification; label: 5'-Cy3; single strand. On the technique in general: Mobility shift assays separate free from complexed probe on a gel.
Chain of hPolεCDM (C654S/C663S), [4Fe-4S]-deficient (Q07864 28-1194 C654S/C663S): as the sequence (Q07864 28-1194) above, with C627S, C636S counted along it

This note sets out measurements from PMC9581978, “The iron-sulfur cluster is essential for DNA binding by human DNA polymerase ε”.

Chain of hPolεCD (insect), catalytic domain of DNA polymerase ε p261, iron-poor (7.3% iron) (Q07864 28-1194): as the sequence (Q07864 28-1194) above

B1: Octet 23-mer template / 11-mer 3'-ddC primer (dsDNA)
DNA 1: AATACATAAGCGCTCCAGGCAAT
DNA 2: GCCTGGAGCGC
modifications: 3'-dideoxycytidine on primer (strand 2)
As to B1, the Kd was 213 ± 43 nM in data set [1] and 167 ± 24 nM in data set [2].
Turning to GGACTCCGAGCTGCC (ssDNA) [15-mer Cy3 primer alone], the binding result in data set [3] is “no binding”.

The Kd is the equilibrium constant for the complex coming apart.
